The target of one assay is T1, BMP2 (Homo sapiens, UniProt P12643).
T1 sequence (P12643 283-396): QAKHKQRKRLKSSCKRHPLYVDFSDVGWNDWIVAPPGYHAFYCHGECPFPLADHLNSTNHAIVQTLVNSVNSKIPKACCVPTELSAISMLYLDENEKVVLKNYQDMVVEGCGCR
The assay is described as follows: BMP specificity of VHH antibodies (summary of binding and inhibition of BMP function). Conditions: summary of SPR and functional experiments. More on the design: key: ●▪: Binding and inhibition of BMP function.; ●□: Binding, but no inhibition.; ○: No binding. The text has this:
(§1) Thus, we have generated several VH Hs that can be classified into four groups (Table 3): BMP4, BMP2/4, BMP2/4/5 and BMP2/4/5/6-specific.

For a further assay, the target named is T2, BMP5 (Homo sapiens, UniProt P22003).
T2 sequence (P22003 317-454): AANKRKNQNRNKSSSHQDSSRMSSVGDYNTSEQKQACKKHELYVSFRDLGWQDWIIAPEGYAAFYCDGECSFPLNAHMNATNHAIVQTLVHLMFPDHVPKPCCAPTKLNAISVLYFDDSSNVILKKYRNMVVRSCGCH
The description is as above. More on the design: key: ●▪: Binding and inhibition of BMP function.; ●□: Binding, but no inhibition.; ○: No binding. Conditions: summary of SPR and functional experiments.
Text: as §1

The target in a further assay is T3, BMP6 (Homo sapiens, UniProt P22004).
T3 sequence (P22004 375-513): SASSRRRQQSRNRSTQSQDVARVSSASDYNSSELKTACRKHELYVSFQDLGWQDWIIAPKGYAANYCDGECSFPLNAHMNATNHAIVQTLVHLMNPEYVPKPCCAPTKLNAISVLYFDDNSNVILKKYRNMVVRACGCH
Described as above. On the set-up: key: ●▪: Binding and inhibition of BMP function.; ●□: Binding, but no inhibition.; ○: No binding. Conditions: summary of SPR and functional experiments.
Text: as §1

For assay [1], the target named is T4, BMP7 (Homo sapiens, UniProt P18075).
T4 sequence (P18075 293-431): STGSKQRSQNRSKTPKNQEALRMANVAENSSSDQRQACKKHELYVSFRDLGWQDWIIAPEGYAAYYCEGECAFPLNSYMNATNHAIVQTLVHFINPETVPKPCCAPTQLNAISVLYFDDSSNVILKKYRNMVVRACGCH
The description is as above. More on the design: key: ●▪: Binding and inhibition of BMP function.; ●□: Binding, but no inhibition.; ○: No binding. Conditions: summary of SPR and functional experiments.
Text: as §1

Assay [2] has as its target T4, BMP7. The assay is described as follows: BMP activity luciferase reporter assay (BRE-luciferase, ID1 promoter) in C2C12 cells. The assay is classed as cell-based, mouse. Conditions: 200 ng/ml hBMP7, 16 h; 500 ng/ml. The method, then:
One of the most studied BMP target genes is the Inhibitor of Differentiation 1 (ID1). This is an immediate early gene that is activated by binding of the phosphorylated SMADs to its promoter region (López-Rovira et al., 2002). Thus, we employed the BMP-responsive C2C12 cells, which are stably transfected with the BRE-luciferase vector containing the BMP-Responsive-Element (the mouse ID1 promoter) cloned into the pGL3 luciferase vector (Zilberberg 2007). […] C2C12 cells were treated with the different BMPs with or without our VHHs or human Noggin at a concentration of 5 μg/ml. Luciferase activity was measured after 16 hours incubation. Most of the transcriptional data is in concordance with the results obtained with the phosphorylation of SMAD1/5/8.
C2C12 cells were plated in 96-well plates at 5×10^3 cells/well and cells were allowed to attach overnight. 100 μl of DMEM with 0.1% BSA were added in each well. VHH antibodies and human Fc-Noggin at the indicated concentrations were added at the same time. Wells with unstimulated cells were added as controls. Cells were treated in triplicate with the BMPs at the indicated concentrations for 16 hours. Luciferase activity was measured by adding 100 μl of luciferase substrate solution from the Bright-Glo™ Luciferase Assay System (Promega Benelux, Leiden, The Netherlands). After 3 minutes of incubation, luciferase activity was measured with Synergy HT Multi-Mode Microplate Reader (Biotek, Winooski, Vt., United States). Luciferase values were normalized to background activity (activity of wells with no cells) and represented as ratio to the activity of BMP-stimulated cells.
C2C12 cells were cultured in 96-well plates at 5×10^3 cells/well. […]
On the technique in general: In a reporter assay the amount or activity of a reporter protein is the signal.

The subject of another assay is BMP12. The description is as above. Conditions: 50 ng/ml hBMP12, 16 h; 500 ng/ml. The class given is cell-based, mouse. The method, then: C2C12 cells were plated in 96-well plates when they reached confluency, cells were treated in triplicate with 25 ng/ml of BMP9, 50 ng/ml of BMP10 or 50 ng/ml of BMP12 (all from R&D Systems), for 16 hours. VHHs or Noggin were added at a concentration of 5 ug/ml. C2C12 cells or HEK293 were plated on 12-well plates and starved for 5 hours, before stimulation with 2 ng/ml of TGF-β (R&D Systems) or 100 ng/ml Activin-A (R&D Systems), respectively. VHHs at the indicated concentrations were added at the same time. After 1 hour cells were lysed, and protein isolation and SDS-PAGE separation were performed as described previously. For protein detection the following antibodies were used: antiphospho-SMAD2 at 1:1000 (Cell Signaling).
C2C12 cells were cultured in 96-well plates at 5×10^3 cells/well. After overnight attachment cells were stimulated with 10 ng/ml hBMP4 (Cat No. 314-BP-020; R&D Systems), 50 ng/ml hBMP2 (Cat No. 355-BM-010; R&D Systems), 200 ng/ml hBMP5 (Cat No. 615-BMC-020; R&D Systems), 50 ng/ml hBMP6 (Cat No. 506-BP-020; R&D Systems), 200 ng/ml hBMP7 (Cat No. 354-BP-010; R&D Systems), 25 ng/ml hBMP9 (Cat No. 3209-BP-010; R&D Systems), 25 ng/ml hBMP10 (Cat No. 2926-BP-025; R&D Systems), 50 ng/ml hBMP12 (Cat No. 779-G7-010; R&D Systems) and with or without VHH antibodies: C4C4 and C8C8 at 500 ng/ml; natural antagonist: mNoggin (Cat No. 1967-NG-025; R&D Systems), hNoggin (Cat No. 6057-NG; R&D Systems) and mGremlin (cat#956-GR-050; R&D Systems) at 500 ng/ml; chemical antagonist: 0.5 μM LDN-193189 (Cat No. 11802; Cayman Chemical) and 0.2 μM DMH1 (Cat No. 57146; Selleckchem).

B1: C8E7: E7 linked to C8, hetero-dimer VHH bihead (protein)
chain: EVQLVESGGGLVQAGGSLRLSCAASGRTFRINDMGWYRQAPGKSRDMVARITSGGNTNYADSVKGRFTISRDNAKNTVYLQMNSLKPEDTAVYYCNADGLRFDSTRYRPFDSWGQGTQVTVSSGGGGSGGGGSEVQLVESGGGLVQAGGSLRLSCAASGSIRGFVAMAWYRQAPGKQREWVATVTNGGTLYGDSVKGRFTGSRDNAKNTVYLQMNSLKPEDTAVYYCALRQIGASGYDYWGQGTQVTVSS
With B1, in the assay with BMP2, the “BMP2: binding and inhibition of BMP function” value is given as “●▪”. For the same molecule, the “BMP5: binding and inhibition of BMP function” value with BMP5 was “●▪”. Further, the “BMP6: binding and inhibition of BMP function” value with BMP6 is “●□”. For the same molecule, in the assay with BMP7 [1], the “BMP7: binding and inhibition of BMP function” value is reported as “●□”.

B2: hNoggin (protein)
chain: QHYLHIRPAPSDNLPLVDLIEHPDPIFDPKEKDLNETLLRSLLGGHYDPGFMATSPPEDRPGGGGGAAGGAEDLAELDQLLRQRPSGAMPSEIKGLEFSEGLAQGKKQRLSKKLRRKLQMWLWSQTFCPVLYAWNDLGSRFWPRYVKVGSCFSKRSCSVPEGMVCKPSKSVHLTVLRWRCQRRGGQRCGWIPIQYPIISECKCSC
As for B2, the “inhibition of BMP-7 signals, comparison of inhibitors” value with BMP7 [2] is listed as “inhibited”. Also, the “inhibition of BMP12 signals, comparison of inhibitors” value in the assay on BMP12 is “inhibited”.

The record behind these values is US10280218B2, “Antibodies binding to BMP4, and uses thereof” (ACADEMISCH MEDISCH CENTRUM, priority 2014, dated 2019).
